From patent US20200087373A1 (UNIVERSITY OF COPENHAGEN, published 2020)
Ends that are not written are not given here. * marks the point of attachment. Palmitoyl = CCCCCCCCCCCCCCCC(=O)*; Myristoyl = CCCCCCCCCCCCCC(=O)*

T1: human GIP receptor (human, UniProt P48546 22-466)
T1 construct: whole, on cells; also called hGIPR
T1 sequence (looked up): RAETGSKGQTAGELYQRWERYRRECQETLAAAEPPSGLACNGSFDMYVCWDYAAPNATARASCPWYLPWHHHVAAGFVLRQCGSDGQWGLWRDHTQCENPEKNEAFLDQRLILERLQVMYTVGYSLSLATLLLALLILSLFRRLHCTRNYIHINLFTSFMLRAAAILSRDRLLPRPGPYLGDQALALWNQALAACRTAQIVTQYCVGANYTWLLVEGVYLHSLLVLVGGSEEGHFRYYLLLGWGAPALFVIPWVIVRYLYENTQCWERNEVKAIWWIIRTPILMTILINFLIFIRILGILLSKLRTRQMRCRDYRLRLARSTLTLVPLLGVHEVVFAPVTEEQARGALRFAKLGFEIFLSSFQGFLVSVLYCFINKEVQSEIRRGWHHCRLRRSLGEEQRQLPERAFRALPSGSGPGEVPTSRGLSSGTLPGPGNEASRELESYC

B1: AT124 [hGIP(5-30)NH2-C16/5] (peptide)
peptide: Palmitoyl-TFISDYSIAMDKIHQQDFVNWLLAQK-NH2
SMILES: CCCCCCCCCCCCCCCC(=O)N[C@H](C(=O)N[C@@H](Cc1ccccc1)C(=O)N[C@H](C(=O)N[C@@H](CO)C(=O)N[C@@H](CC(=O)O)C(=O)N[C@@H](Cc1ccc(O)cc1)C(=O)N[C@@H](CO)C(=O)N[C@H](C(=O)N[C@@H](C)C(=O)N[C@@H](CCSC)C(=O)N[C@@H](CC(=O)O)C(=O)N[C@@H](CCCCN)C(=O)N[C@H](C(=O)N[C@@H](Cc1c[nH]cn1)C(=O)N[C@@H](CCC(N)=O)C(=O)N[C@@H](CCC(N)=O)C(=O)N[C@@H](CC(=O)O)C(=O)N[C@@H](Cc1ccccc1)C(=O)N[C@H](C(=O)N[C@@H](CC(N)=O)C(=O)N[C@@H](Cc1c[nH]c2ccccc12)C(=O)N[C@@H](CC(C)C)C(=O)N[C@@H](CC(C)C)C(=O)N[C@@H](C)C(=O)N[C@@H](CCC(N)=O)C(=O)N[C@@H](CCCCN)C(N)=O)C(C)C)[C@@H](C)CC)[C@@H](C)CC)[C@@H](C)CC)[C@@H](C)O
B2: AT122 [hGIP(5-30)NH2-C14/16] (peptide)
peptide: TFISDYSIAMDK(Myristoyl)IHQQDFVNWLLAQK-NH2
modifications: N-terminus assumed
SMILES: CCCCCCCCCCCCCC(=O)NCCCC[C@H](NC(=O)[C@H](CC(=O)O)NC(=O)[C@H](CCSC)NC(=O)[C@H](C)NC(=O)[C@@H](NC(=O)[C@H](CO)NC(=O)[C@H](Cc1ccc(O)cc1)NC(=O)[C@H](CC(=O)O)NC(=O)[C@H](CO)NC(=O)[C@@H](NC(=O)[C@H](Cc1ccccc1)NC(=O)[C@@H](N)[C@@H](C)O)[C@@H](C)CC)[C@@H](C)CC)C(=O)N[C@H](C(=O)N[C@@H](Cc1c[nH]cn1)C(=O)N[C@@H](CCC(N)=O)C(=O)N[C@@H](CCC(N)=O)C(=O)N[C@@H](CC(=O)O)C(=O)N[C@@H](Cc1ccccc1)C(=O)N[C@H](C(=O)N[C@@H](CC(N)=O)C(=O)N[C@@H](Cc1c[nH]c2ccccc12)C(=O)N[C@@H](CC(C)C)C(=O)N[C@@H](CC(C)C)C(=O)N[C@@H](C)C(=O)N[C@@H](CCC(N)=O)C(=O)N[C@@H](CCCCN)C(N)=O)C(C)C)[C@@H](C)CC

How the values were obtained:
human GIP receptor [1] = molecular target: T1, human GIP receptor; assay: 125I-hGIP competition binding, COS-7/hGIPR, 0.1% casein;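 also: nonspecific binding defined as radioligand binding measured on untransfected cells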
Protocol: (§1) After incubation, the cells were washed twice in ice-cold binding buffer (+/−2% HSA) and lysed using 200 mM NaOH with 1% SDS for 30 min. Nonspecific binding was determined as the binding of radioactive ligand to untransfected cells.

human GIP receptor [2] = molecular target: T1, human GIP receptor; assay: 125I-hGIP competition binding, COS-7 cells expressing hGIPR;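 also: nonspecific binding taken as radioligand bound by untransfected cells, binding buffer with or without 2% HSA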
Protocol: as §1

human GIP receptor [3] = molecular target: T1, human GIP receptor; assay: 125I-hGIP competition binding, COS-7/hGIPR, 2% HSA;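 also: nonspecific binding defined as radioligand binding to untransfected cells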
Protocol: as §1

human GIP receptor [4] = molecular target: T1, human GIP receptor; assay: IC50 with 2% HSA over IC50 with 0.1% casein, 125I-hGIP competition, COS-7/hGIPR
Protocol: as §1

human GIP receptor [5] = molecular target: T1, human GIP receptor; assay: cell-based or functional assay

| Binder | IC50 (human GIP receptor [1]) | logIC50 (human GIP receptor [1]) | IC50 (human GIP receptor [2]) | log IC50 (human GIP receptor [2]) | IC50 (human GIP receptor [3]) | logIC50 (human GIP receptor [3]) | Fold change HSA (2%)/Casein (0.1%) (human GIP receptor [4]) | cAMP agonism, Emax (human GIP receptor [5]) | cAMP antagonism (human GIP receptor [5]) | cAMP antagonism, log (human GIP receptor [5]) |
| --- | --- | --- | --- | --- | --- | --- | --- | --- | --- | --- |
| B1 | 1590 nM | -5.8 log M | 361 nM | -6.4 log M | 8240 nM | -5.1 log M | 5.2 fold | – | – | – |
| B2 | 1230 nM | -5.9 log M | 591 nM | -6.2 log M | 6080 nM | -5.2 log M | 4.9 fold | – | – | – |
| TKISDYSIAMDKIHQQDFVNWLLAQK (C16-diacid fatty acyl on Lys 6 (GIP numbering); C-terminal amide) [AT168 [hGIP(5-30)NH2[F6K]-C16diacid/6]] | 50.1 nM | -7.3 log M | 48 nM | -7.3 log M | 100 nM | -7 log M | 2 fold | 0 | 96 nM | -7 log M |
